Measurements taken from patent publication US20230025600A1, “TREATMENT OF CANCERS WITH ANTIBODY DRUG CONJUGATES (ADC) THAT BIND TO 191P4D12 PROTEINS” (AGENSYS, INC., priority 2019, published 2023).

Tests used:
pregnant rats = test: Rat embryo-fetal development study; format: in vivo
Description: Additionally, skeletal anomalies (asymmetric, fused, incompletely ossified, and misshapen sternebrae, misshapen cervical arch, and unilateral ossification of the thoracic centra) and decreased fetal weight were observed.

[1] = Population pharmacokinetic analysis in patients; format: in vivo, human
Description: Population pharmacokinetic analysis included data from 369 patients based on three Phase 1 studies and one Phase 2 study. Enfortumab vedotin-ejfv pharmacokinetics were characterized after single and multiple doses in patients with locally advanced or metastatic urothelial carcinoma and other solid tumors.
Steady-state concentrations of ADC and MMAE were reached after 1 treatment cycle.

[2] = Storage of reconstituted vial and prepared infusion bag; format: physicochemical
Protocol: 7. Based upon the calculated dose amount, the reconstituted solution from the vial(s) should be added to the infusion bag immediately. […] If not used immediately, reconstituted vials may be stored for up to […] in refrigeration at 2° C. to 8° C. (36° F. to 46° F.). […] Discard unused vials with reconstituted solution beyond the recommended storage time.
14. If the infusion is not administered immediately, the prepared infusion bag should not be stored longer than […] at 2° C. to 8° C. (36° F. to 46° F.).

rats = test: Repeat-dose toxicology studies in rats; format: in vivo, rat
[3] = Immunogenicity (anti-therapeutic antibody, ATA); format: in vivo, human; settings: 365 patients tested
Description: As with all therapeutic proteins, there is a potential for immunogenicity. The detection of antibody formation is highly dependent on the sensitivity and specificity of the assay. Additionally, the observed incidence of antibody (including neutralizing antibody) positivity in an assay may be influenced by several factors including assay methodology, sample handling, timing of sample collection, concomitant medications, and underlying disease. For these reasons, comparison of the incidence of antibodies in the studies described below with the incidence of antibodies in other studies or other enfortumab vedotin products may be misleading.
A total of 365 patients were tested for immunogenicity to PADCEV; 4 patients (1%) were confirmed to be transiently positive for anti-therapeutic antibody (ATA), and 1 patient (0.3%) was confirmed to be persistently positive for ATA at any post-baseline time point. No impact of ATA on efficacy, safety and pharmacokinetics was observed.

[4] = Exposure-response analysis; format: in vivo, human
[5] = Outcome of adverse reactions under the dose modification schedule; format: in vivo, human
Description: The results based on the dose modification schedule as provided are as follows.

[6] = system: locally advanced or metastatic urothelial cancer; test: EV-201 single-arm trial, efficacy (BICR, RECIST v1.1); format: in vivo, human
Protocol: The efficacy of PADCEV was evaluated in EV-201 (NCT03219333), single-arm, multicenter trial that enrolled 125 patients with locally advanced or metastatic urothelial cancer who received prior treatment with a PD-1 or PD-L1 inhibitor and platinum-based chemotherapy. Patients were excluded if they had active CNS metastases, ongoing sensory or motor neuropathy >Grade 2, or uncontrolled diabetes defined as hemoglobin A1C (HbA1c)≥8% or HbA1c≥7% with associated diabetes symptoms.
The median age was 69 years (range: 40 to 84 years), 70% were male, and 85% were Caucasian. […] Ninety percent of patients had visceral metastases including 40% with liver metastases. Two-thirds of patients had pure transitional cell carcinoma (TCC) histology; 33% had TCC with other histologic variants. An immunohistochemistry clinical trial assay was used to assess patients with tumor tissue available, and detected Nectin-4 expression in all patients tested (n=120). The median number of prior systemic therapies was 3 (range: 1 to 6). Forty-six percent of patients received prior PD-1 inhibitor, 42% received prior PD-L1 inhibitor, and an additional 13% received both PD-1 and PD-L1 inhibitors. Sixty-six percent of patients received prior cisplatin-based regimens, 26% received prior carboplatin-based regimens, and an additional 8% received both cisplatin and carboplatin-based regimens.
The major efficacy outcome measures were confirmed objective response rate (ORR) and duration of response (DOR) assessed by blinded independent central review (BICR) using RECIST v1.1.

[7] = ADC, after first treatment cycle of 1.25 mg/kg, Days 1, 8 and 15
[8] = among patients who experienced hyperglycemia
[9] = among patients who experienced it, dose modification schedule

## enfortumab vedotin-ejfv [PADCEV]
Pregnant rats; maternal exposures approximately similar to exposure at recommended human dose of 1.25 mg/kg
  findings in pregnant rats dosed during organogenesis: maternal toxicity, embryo-fetal lethality, structural malformations and skeletal anomalies
Pregnant rats; rat pilot embryo-fetal development study
  skeletal anomalies and decreased fetal weight: observed
Pregnant rats; rat, 5 mg/kg
  exposure at 5 mg/kg relative to the recommended human dose: approximately 3 times the exposure at the recommended human dose
Pregnant rats; rat, gestation day 6 and 13, 2 mg/kg, approximately similar to exposure at recommended human dose
  outcome at 2 mg/kg: maternal toxicity, embryo-fetal lethality and structural malformations
Pregnant rats; rat, gestation day 6 and 13, 5 mg/kg
  outcome at the maternally toxic dose of 5 mg/kg: complete litter loss in all pregnant rats
[1]; 1.25 mg/kg, compared to normal renal function
  exposure (AUC) in mild, moderate or severe renal impairment: No significant differences
[1]; [7]
  AUC0-28 d, Mean (±SD): 111 (38) μg · d/mL
  Cmax, Mean (±SD): 28 (6.8) μg/mL
[1]; patients
  accumulation following repeat administration: Minimal accumulation
  estimated mean steady-state volume of distribution: 11 L
  mean clearance (CL): 0.10 L/h
  steady-state concentrations reached after: 1 treatment cycle
[1]; patients, intravenous infusion
  time of peak ADC concentrations: near the end of intravenous infusion
[1]; patients, multi-exponential declines
  elimination half-life: 81.6 h
[1]; population pharmacokinetic analysis
  differences in pharmacokinetics based on age (24 to 87 years), sex, or race/ethnicity: no clinically significant differences
[2]; 2° C. to 8° C.
  storage time of prepared infusion bag: ≤ 8 h
[2]; refrigeration at 2° C. to 8° C.
  storage time of reconstituted vials: up to 4 hours
rats
  potential indicated by repeat-dose toxicity studies in rats: impair male reproductive function and fertility
rats; up to 13 weeks
  reversal of testes and epididymis findings by end of recovery period: did not reverse
rats; up to 13 weeks, doses >=2 mg/kg, exposures similar to recommended human dose
  findings in testes and epididymis: decreases in testes and epididymis weights, seminiferous tubule degeneration, spermatid/spermatocyte depletion in the testes and cell debris, sperm granuloma and hypospermia/abnormal spermatids in the epididymis
[3]
  impact of ATA on efficacy, safety and pharmacokinetics: No impact
[3]; 1 patient
  patients persistently positive for ATA at any post-baseline time point: 0.3%
[3]; 4 patients
  patients transiently positive for anti-therapeutic antibody (ATA): 1%
[4]; e.g. Grade >=2 peripheral neuropathy, Grade >=3 hyperglycemia
  association of higher exposure: higher incidence of some adverse reactions
[4]; exposure-response analysis
  association of lower exposure: lower efficacy
[5]; [8]
  hyperglycemia: complete resolution: 57%
  hyperglycemia: some improvement: 14%
[5]; [9]
  rash: complete resolution: 73%
  rash: patients with resolution or improvement: 93%
  rash: some improvement: 20%
[5]; among patients who experienced peripheral neuropathy
  peripheral neuropathy: resolution or Grade 1 after the dose modification: 76%
[5]; of those with ongoing rash
  ongoing rash that was Grade 1: 75%
[6]; EV-201
  median time to response: 1.84 months
[6]; EV-201, BICR, median follow-up 10.2 months
  Median Duration of Response: 7.6 months
[6]; EV-201, n = 125, BICR
  Complete Response Rate (CR): 12%
  Partial Response Rate (PR): 32%
[6]; EV-201, n = 125, BICR, 1.25 mg/kg Days 1, 8, 15 of 28-day cycle
  Confirmed ORR: 44%
